According to paper PMC9338935, “Structural determinants of DNA recognition by the NO sensor NsrR and related Rrf2-type [FeS]-transcription factors” (Communications Biology, 2022):
Changes are numbered by the printed parent chain.

Legend:
[1] = target: the molecule itself; assay: crystal structure; [4Fe-4S]-ScNsrR dimer complexed with a 23 bp hmpA1 operator dsDNA fragment; 3.0 Å; crystallised anaerobically; space group P6_(5)
[2] = target: T1, [4Fe-4S]-NsrR (ScNsrR) (Streptomyces coelicolor, UniProt Q9L132 1-148); assay: X-ray crystallography; [4Fe-4S] cluster; EMSA: 10 mM Tris, 54 mM KCl, 0.3% glycerol, 1.32 mM GSH, pH 7.5, on ice, ~4 nM DNA, up to ~20-fold molar excess [4Fe-4S] NsrR. Crystal complex: 50 mM Tris pH 8.0, 500 mM NaCl, 5% glycerol, 20 C, anaerobic; grown in PEG, 30 mM MgCl2, 30 mM CaCl2, MOPS/HEPES pH 8.0; conditions: protein: recombinant; chain copies: 2; blunt
T1 sequence: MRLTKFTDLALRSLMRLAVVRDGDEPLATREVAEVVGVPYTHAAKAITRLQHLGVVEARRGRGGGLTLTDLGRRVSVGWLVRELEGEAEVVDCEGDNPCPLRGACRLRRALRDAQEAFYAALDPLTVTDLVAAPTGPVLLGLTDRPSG

[3] = target: T1, [4Fe-4S]-NsrR (ScNsrR); assay: EMSA; [4Fe-4S] cluster; EMSA: 10 mM Tris, 54 mM KCl, 0.3% glycerol, 1.32 mM GSH, pH 7.5, on ice, ~4 nM DNA, up to ~20-fold molar excess [4Fe-4S] NsrR. Crystal complex: 50 mM Tris pH 8.0, 500 mM NaCl, 5% glycerol, 20 C, anaerobic; grown in PEG, 30 mM MgCl2, 30 mM CaCl2, MOPS/HEPES pH 8.0; conditions: protein: recombinant; chain copies: 2; label: 6-FAM (from PCR primers); blunt
[4] = target: T1, [4Fe-4S]-NsrR (ScNsrR); assay: EMSA; [4Fe-4S] cluster; no clear difference from wild type; EMSA: 10 mM Tris, 54 mM KCl, 0.3% glycerol, 1.32 mM GSH, pH 7.5, on ice, ~4 nM DNA, up to ~20-fold molar excess [4Fe-4S] NsrR. Crystal complex: 50 mM Tris pH 8.0, 500 mM NaCl, 5% glycerol, 20 C, anaerobic; grown in PEG, 30 mM MgCl2, 30 mM CaCl2, MOPS/HEPES pH 8.0; conditions: protein: recombinant; chain copies: 2; label: 6-FAM (from PCR primers); blunt
[5] = target: T1, [4Fe-4S]-NsrR (ScNsrR); assay: EMSA; [4Fe-4S] cluster; essentially stoichiometric, no significant difference; EMSA: 10 mM Tris, 54 mM KCl, 0.3% glycerol, 1.32 mM GSH, pH 7.5, on ice, ~4 nM DNA, up to ~20-fold molar excess [4Fe-4S] NsrR. Crystal complex: 50 mM Tris pH 8.0, 500 mM NaCl, 5% glycerol, 20 C, anaerobic; grown in PEG, 30 mM MgCl2, 30 mM CaCl2, MOPS/HEPES pH 8.0; conditions: protein: recombinant; chain copies: 2; label: 6-FAM (from PCR primers); blunt

B1: [4Fe-4S]-NsrR from Streptomyces coelicolor (natural protein)
chain: T1 sequence
notes: NsrR, NO-sensing Rrf2 family transcription factor of Streptomyces coelicolor; also called ScNsrR; [4Fe-4S]-ScNsrR
For B1, the “stoichiometry N” value [1] was 2.

B2: hmpA1 operator 23 bp (dsDNA)
DNA 1: AACACGAATATCATCTACCAATT
DNA 2: AATTGGTAGATGATATTCGTGTT
B2: binds [2].

B3: Av003 wild type hmpA1 probe (dsDNA)
DNA 1: CTAAAACGACGGCCAGTCGGGATGACGGGCGGCGGCCCCCTGAGGCCGTCGAGCTGTGGCCTAAAACACGAATATCATCTACCAATTAAGGAGTCGCTGTGCTCTCCGAACAGTCCGTTCCCGTGGTCCGAGCCGTCATAGCTGTTTCCTG
DNA 2: CAGGAAACAGCTATGACGGCTCGGACCACGGGAACGGACTGTTCGGAGAGCACAGCGACTCCTTAATTGGTAGATGATATTCGTGTTTTAGGCCACAGCTCGACGGCCTCAGGGGGCCGCCGCCCGTCATCCCGACTGGCCGTCGTTTTAG
B3: binds [3].

B4: Av004 hmpXT1 probe (dsDNA)
DNA 1: B3 DNA 1 with T75A, A77T
DNA 2: B3 DNA 2 with T75A, A77T
B4: binds [4].

B5: Av005 hmpXT2 probe (dsDNA)
DNA 1: B3 DNA 1 with T73A, C79T
DNA 2: B3 DNA 2 with G73A, A79T
B5: binds [4].

B6: Av006 hmpA/T probe (dsDNA)
DNA 1: B3 DNA 1 with C76T, C79T
DNA 2: B3 DNA 2 with G73A, G76A
B6: binds [5].

B7: Av007 hmpG/C probe (dsDNA)
DNA 1: B3 DNA 1 with T73C, A74G, T75C, A77G, T78C
DNA 2: B3 DNA 2 with A74G, T75C, A77G, T78C, A79G
B7: binds [5].
